Data from IntAct's records for PubMed 18093920.

B1: Syndecan-2 (Homo sapiens), P34741 (parent)
chain: MRRAWILLTLGLVACVSAESRAELTSDKDMYLDNSSIEEASGVYPIDDDDYASASGSGADEDVESPELTTSRPLPKILLTSAAPKVETTTLNIQNKIPAQTKSPEETDKEKVHLSDSERKMDPAEEDTNVYTEKHSDSLFKRTEVLAAVIAGGVIGFLFAIFLILLLVYRMRKKDEGSYDLGERKPSSAAYQKAPTKEFYA
B2: Syndecan-3 (Homo sapiens), O75056 (parent)
chain: MKPGPPHRAGAAHGAGAGAGAAAGPGARGLLLPPLLLLLLAGRAAGAQRWRSENFERPVDLEGSGDDDSFPDDELDDLYSGSGSGYFEQESGIETAMRFSPDVALAVSTTPAVLPTTNIQPVGTPFEELPSERPTLEPATSPLVVTEVPEEPSQRATTVSTTMATTAATSTGDPTVATVPATVATATPSTPAAPPFTATTAVIRTTGVRRLLPLPLTTVATARATTPEAPSPPTTAAVLDTEAPTPRLVSTATSRPRALPRPATTQEPDIPERSTLPLGTTAPGPTEVAQTPTPETFLTTIRDEPEVPVSGGPSGDFELPEEETTQPDTANEVVAVGGAAAKASSPPGTLPKGARPGPGLLDNAIDSGSSAAQLPQKSILERKEVLVAVIVGGVVGALFAAFLVTLLIYRMKKKDEGSYTLEEPKQASVTYQKPDKQEEFYA
partner: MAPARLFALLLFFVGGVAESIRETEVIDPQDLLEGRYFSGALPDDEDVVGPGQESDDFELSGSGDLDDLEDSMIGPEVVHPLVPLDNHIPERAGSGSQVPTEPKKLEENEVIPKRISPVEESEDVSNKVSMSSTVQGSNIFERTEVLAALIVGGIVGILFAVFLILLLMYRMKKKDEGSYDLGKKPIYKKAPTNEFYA
B3: Syndecan-2 (Homo sapiens), P34741 (parent)
chain: B1 chain
partner: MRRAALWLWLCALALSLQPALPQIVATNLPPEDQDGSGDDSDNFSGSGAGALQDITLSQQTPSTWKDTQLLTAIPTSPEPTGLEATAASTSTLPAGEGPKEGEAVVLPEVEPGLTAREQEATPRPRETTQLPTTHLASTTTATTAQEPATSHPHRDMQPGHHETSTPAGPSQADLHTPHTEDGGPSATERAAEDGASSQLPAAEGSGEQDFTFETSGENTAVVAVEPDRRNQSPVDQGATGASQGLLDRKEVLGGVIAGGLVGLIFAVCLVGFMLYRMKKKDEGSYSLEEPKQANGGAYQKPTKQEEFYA
B4: Syndecan-2 (Homo sapiens), P34741 (parent)
chain: B1 chain
partner: B2 partner
B5: Syndecan-1 (Homo sapiens), P18827 (parent)
chain: B3 partner
B6: Syndecan-4 (Homo sapiens), P31431 (parent)
chain: B2 partner
B7: Syndecan-3 (Homo sapiens), O75056 (parent)
chain: B2 chain

Variants of: B1
Conditions: with sdc3_human SDC3, O75056

Variant | effect of a mutation on the interaction
G156L | decreasing interaction
G152L | decreasing interaction

Variants of: B2
Conditions: with sdc4_human SDC4, P31431

Variant | effect of a mutation on the interaction
G396L | decreasing interaction

Variants of: B3
Conditions: with sdc1_human SDC1, P18827

Variant | effect of a mutation on the interaction
G152L | decreasing interaction
G156L | decreasing interaction

Variants of: B4
Conditions: with sdc4_human SDC4, P31431

Variant | effect of a mutation on the interaction
G152L | decreasing interaction
G156L | decreasing interaction

Variants of: B5
Conditions: with sdc2_human SDC2, P34741

Variant | effect of a mutation on the interaction
G263L | decreasing interaction
G259L | decreasing interaction

Variants of: B5
Conditions: with sdc3_human SDC3, O75056

Variant | effect of a mutation on the interaction
G263L | decreasing interaction
G259L | decreasing interaction

Variants of: B6
Conditions: with sdc2_human SDC2, P34741

Variant | effect of a mutation on the interaction
G153L | decreasing interaction
G157L | decreasing interaction

Variants of: B6
Conditions: with sdc3_human SDC3, O75056

Variant | effect of a mutation on the interaction
G153L | decreasing interaction
G157L | decreasing interaction

Variants of: B7
Conditions: with sdc2_human SDC2, P34741

Variant | effect of a mutation on the interaction
G396L | decreasing interaction
G392L | decreasing interaction
